Test results from patent US20170306037A1 (Novartis, published 2017).

Columns and labels:
[1] = target: T1, human GITR expressed on cells (human, UniProt Q9Y5U5 27-241); assay: cell-based or functional assay
T1 sequence: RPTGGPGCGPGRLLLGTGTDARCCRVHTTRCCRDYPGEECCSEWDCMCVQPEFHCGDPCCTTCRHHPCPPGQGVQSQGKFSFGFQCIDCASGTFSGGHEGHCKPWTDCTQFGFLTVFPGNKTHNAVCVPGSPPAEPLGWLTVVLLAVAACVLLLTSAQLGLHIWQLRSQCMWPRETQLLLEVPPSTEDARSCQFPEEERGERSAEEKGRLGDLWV

[2] = target: T1, human GITR expressed on cells; assay: FACS competition on hGITR stable HEK293 cells: ligand titrated first, then 4 nM MAB7 as competitor, PE anti-human detection
Description: The ability of MAB to block ligand binding was assessed using HEK293 NFκB reporter parental cells and hGITR stable cells were used in competition binding assays and FACS analysis. Briefly, harvested cells were plated 1×10⁶ cells per mL, 100 μL per well to a 96 well round bottom FACS plate (Corning), then resuspended in 200 μL of cold FACS buffer (1×PBS+1% FBS-HI+0.1% sodium azide) per well. […] Plates were incubated for 1 hour on ice protected from light, cells washed, then prepared 4 nM isotype control or MAB solutions were prepared and added to appropriate wells at 100 μL per well and plates were incubated for 1 hour on ice protected from light, cells washed, then PE-conjugated goat-anti-human detection antibody (Jackson ImmunoResearch) prepared at 1:100 dilution in FACS buffer was added at 100 μL per well and plates were incubated for 30 minutes on ice protected from light. Cells were washed in FACS buffer then cells were fixed with 100 μL per well of BD CytoFix (BD Biosciences) and incubated for further 15 minutes on ice protected from light.

[3] = target: T2, mouse GITR extracellular domain (mouse, UniProt O35714 20-153); assay: ELISA on coated GITR ECD
T2 construct: extracellular domain; also called murine GITR; rodent GITR
T2 sequence (looked up): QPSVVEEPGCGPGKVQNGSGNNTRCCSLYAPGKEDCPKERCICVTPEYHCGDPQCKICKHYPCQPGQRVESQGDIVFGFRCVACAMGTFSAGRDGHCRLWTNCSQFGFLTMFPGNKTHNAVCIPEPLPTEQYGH
Description: (§1) The plate was blocked with a solution of 1% BSA in PBS for one hour at room temperature and then rinsed three times with PBST. The MAB was then diluted to 0.5 μg/mL or 1 μg/mL in PBS and 20 μL was added to each well. The plate was incubated for 1 hour at room temperature and then washed three times with PBST. […] The plate was incubated for 1 hour at room temperature, and then washed six times with PBST. 25 μL of SureBlue TMB (KPL 52-00-02) substrate was added to each well and the plate was incubated for about 10 min at room temperature.

[4] = target: T3, human GITR (hGITR), form not stated (human, UniProt Q9Y5U5 26-162, limits assumed); assay: Biacore (SPR), IgG
T3 construct: the construct is not described
T3 sequence: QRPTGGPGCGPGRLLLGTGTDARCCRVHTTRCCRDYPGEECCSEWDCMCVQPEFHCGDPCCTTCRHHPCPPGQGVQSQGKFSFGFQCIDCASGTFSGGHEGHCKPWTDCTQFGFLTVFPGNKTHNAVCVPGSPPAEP

[5] = target: cyno GITR (cGITR), form not stated (cynomolgus monkey); assay: Biacore (SPR), IgG
[6] = target: T4, human GITR extracellular domain (hGITR ECD) (human, UniProt Q9Y5U5 26-162); assay: ELISA on coated GITR ECD
T4 construct: also called human GITR ECD
T4 sequence: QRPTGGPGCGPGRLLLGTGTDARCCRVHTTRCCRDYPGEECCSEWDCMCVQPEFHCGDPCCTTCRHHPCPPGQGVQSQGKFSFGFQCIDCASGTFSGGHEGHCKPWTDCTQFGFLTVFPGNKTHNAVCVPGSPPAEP
Description: as §1

[7] = target: T5, Recombinant human GITR and human Fc fusion protein (hGITR-hFc) (human, UniProt Q9Y5U5 26-162, limits assumed, biotinylated in the ForteBio Octet assays (sites not given)); assay: ForteBio Octet QK, streptavidin biosensors coated with biotinylated hGITR-hFc
T5 construct: also called biotinylated hGITR-hFc; not shown: human Fc
T5 sequence: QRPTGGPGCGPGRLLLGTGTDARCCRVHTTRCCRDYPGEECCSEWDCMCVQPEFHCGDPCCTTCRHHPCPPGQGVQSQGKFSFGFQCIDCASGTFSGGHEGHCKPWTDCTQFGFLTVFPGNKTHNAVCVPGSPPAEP
From the text: Human germline residues incorporated into the optimized reference MAB1opFab in FR1 and FR3 are those specified by the PCR primers used to amplify the human V-segment repertoire and thus are present in all members of the Humaneered® Antibody V-region libraries. The optimized reference Fab is constructed to assess whether or not any of the changes to human germline alter the properties of Fab binding.

[8] = target: T5, Recombinant human GITR and human Fc …; assay: ForteBio Octet, Fab on human GITR (biotinylated hGITR-hFc sensors per paragraph 356); experiment b
[9] = target: T5, Recombinant human GITR and human Fc …; assay: ForteBio Octet, Fab on human GITR (biotinylated hGITR-hFc sensors per paragraph 356); experiment a
[10] = target: T5, Recombinant human GITR and human Fc …; assay: ForteBio Octet, Fab on human GITR (biotinylated hGITR-hFc sensors per paragraph 356); experiment c

B1: recombinant human GITR ligand (GITR-L) (ligand, UniProt Q9UNG2 52-177, looked up)
chain: ETAKEPCMAKFGPLPSKWQMASSEPPCVNKVSDWKLEILQNGLYLIYGQVAPNANYNDVAPFEVRLYKNKDMIQTLTNKSKIQNVGGTYELHVGDTIDLIFNSEHQVLKNNTYWGIILLANPQFIS
EC50, NFκB-luciferase reporter in 293 cells overexpressing human GITR [1]: ~65 nM
IC50 (read off the curve) [2]: ~0.2 molar ratio of Human GITR Ligand to MAB7 (MAB7 at 4 nM)

B2: MAB6 (IgG1 kappa) (antibody, V domains shown)
VH: EVQLVESGGGLVQSGGSLRLSCAASGFSLSSYGVDWVRQAPGKGLEWLGVIWGGGGTYYTSSLMARFTISRDNSKNTLYLQMNSLRAEDTAVYYCAKHAYGHDGGFAMDYWGQGTLVTVSS
VL: EIVMTQSPATLSVSPGERATLSCRASESVSSNVAWYQQRPGQAPRLLIYGASNRATGIPARFSGSGSGTDFTLTISRLEPEDFAVYYCGQSYSYPFTFGQGTKLEIKR
binding result [3]: no binding (tested: 0.5 µg/mL or 1 µg/mL)

B3: MAB7 (IgG1 kappa) (antibody, V domains shown)
VH: EVQLVESGGGLVQSGGSLRLSCAASGFSLSSYGVDWVRQAPGKGLEWVGVIWGGGGTYYASSLMGRFTISRDNSKNTLYLQMNSLRAEDTAVYYCARHAYGHDGGFAMDYWGQGTLVTVSS
VL: EIVMTQSPATLSVSPGERATLSCRASESVSSNVAWYQQRPGQAPRLLIYGASNRATGIPARFSGSGSGTDFTLTISRLEPEDFAVYYCGQSYSYPFTFGQGTKLEIKR
notes: MAB4 with the glycation site KH changed to RH
binding result [3]: no binding (tested: not on the sheet; paragraph 336: 0.5 or 1 µg/mL)
Kd [4]: 4.29 nM
Kd [5]: 3.67 nM

B4: MAB8 (IgG1 kappa) (antibody, V domains shown)
VH: EVQLVESGGGLVQSGGSLRLSCAASGFSLSSYGVDWVRQAPGKGLEWVGVIWGGGGTYYASSLMGRFTISRDNSKNTLYLQMNSLRAEDTAVYYCARNAYGHDGGFAMDYWGQGTLVTVSS
VL: EIVMTQSPATLSVSPGERATLSCRASESVSSNVAWYQQRPGQAPRLLIYGASNRATGIPARFSGSGSGTDFTLTISRLEPEDFAVYYCGQSYSYPFTFGQGTKLEIKR
notes: MAB4 with the glycation site KH changed to RN
binding result [3]: no binding (tested: 0.5 µg/mL or 1 µg/mL)
binding result [6]: binds

B5: MAB1rFab (reference Fab of MAB1) (Fab, V domains shown)
VH: QVQLKESGPGLVAPSQSLSITCTVSGFSLRSYGVDWVRQPPGKGLEWLGVIWGGGGTNYNSALMAKLSISKDKSKSQVFLKMNSLQTDDTAMYYCAKHAYGHDGGFAMDYWGQGTSVTVSS
VL: EIVMTQSPKSMSMSVGERVTLSCKASENVDTFVSWYQQKPDHSPKLLIYGASNRYTGVPDRFTGSGSATDFTLTISSVQAEDLADYHCGQSYSYPFTFGSGTKLEIK
binding result [7]: binds

B6: MAB1 (murine monoclonal GITR agonist antibody) (antibody, V domains shown)
VH: QVQLKESGPGLVAPSQSLSITCTVSGFSLRSYGVDWVRQPPGKGLEWLGVIWGGGGTNYNSALMAKLSISKDKSKSQVFLKMNSLQTDDTAMYYCAKHAYGHDGGFAMDYWGQGTSVTVSS
VL: NIVMTQSPKSMSMSVGERVTLSCKASENVDTFVSWYQQKPDHSPKLLIYGASNRYTGVPDRFTGSGSATDFTLTISSVQAEDLADYHCGQSYSYPFTFGSGTKLEIK
notes: Mouse hybridoma antibody; also called parental mouse antibody MAB1; MAB1 parental Ab
binding result [3]: no binding
binding result [6]: binds

B7: MAB5 Fab (human full-chain Fab) (Fab, V domains shown)
VH: EVQLVESGGGLVQSGGSLRLSCAASGFSLSSYGVDWVRQAPGKGLEWLGVIWGGGGTYYTSSLMGRFTISRDNSKNTLYLQMNSLRAEDTAVYYCAKHAYGHDGGFAMDYWGQGTLVTVSS
VL: EIVMTQSPATLSVSPGERATLSCRASESVSSNVAWYQQRPGQAPRLLIYGASNRATGIPARFSGSGSGTDFTLTISRLEPEDFAVYYCGQSYSYPFTFGQGTKLEIK
notes: human kappa constant; also called MAB5(b)
Kd [8]: 3.74 nM

B8: MAB2 Fab (human full-chain Fab) (Fab, V domains shown)
VH: QVQLVESGGGLVQPGGSLRLSCAASGFSLSSYGVDWVRQAPGKGLEWVGVIWGGGGTYYASSVMARFTISRDNSKNTLYLQMNSLRAEDTAVYYCAKHAYGHDGGFAMDYWGQGTLVTVSS
VL: EIVMTQSPATLSVSPGERATLSCRASESVSSNVAWYQQRPGQAPRLLIYGASNRATGIPARFSGSGSGTDFTLTISRLEPEDFAVYYCGQSYSYPFTFGQGTKLEIK
notes: human kappa constant; purified on Ni-NTA; also called MAB2(a)
Kd [9]: 6.84 nM

B9: MAB3 Fab (human full-chain Fab) (Fab, V domains shown)
VH: QVQLVESGGGLVQPGGSLRLSCAASGFSLSSYGVDWVRQAPGKGLEWLGVIWGGGGTYYTASLMGRFTISRDNSKNTLYLQMNSLRAEDTAVYYCAKHAYGHDGGFAMDYWGQGTLVTVSS
VL: EIVMTQSPATLSVSPGERATLSCRASQSVSSNLAWYQQKPGQAPRLLIYGASNRATGIPDRFSGSGSGTDFTLTISRLEPEDFAVYYCGQSYSYPFTFGQGTKLEIK
notes: human kappa constant; also called MAB3(a)
Kd [9]: 2.98 nM

B10: MAB4 Fab (human full-chain Fab) (Fab, V domains shown)
VH: EVQLVESGGGLVQSGGSLRLSCAASGFSLSSYGVDWVRQAPGKGLEWVGVIWGGGGTYYASSLMGRFTISRDNSKNTLYLQMNSLRAEDTAVYYCAKHAYGHDGGFAMDYWGQGTLVTVSS
VL: EIVMTQSPATLSVSPGERATLSCRASESVSSNVAWYQQRPGQAPRLLIYGASNRATGIPARFSGSGSGTDFTLTISRLEPEDFAVYYCGQSYSYPFTFGQGTKLEIK
notes: human kappa constant; also called MAB4(b)
Kd [8]: 2.43 nM

B11: MAB6 Fab (human full-chain Fab) (Fab, V domains shown)
VH: EVQLVESGGGLVQSGGSLRLSCAASGFSLSSYGVDWVRQAPGKGLEWLGVIWGGGGTYYTSSLMARFTISRDNSKNTLYLQMNSLRAEDTAVYYCAKHAYGHDGGFAMDYWGQGTLVTVSS
VL: EIVMTQSPATLSVSPGERATLSCRASESVSSNVAWYQQRPGQAPRLLIYGASNRATGIPARFSGSGSGTDFTLTISRLEPEDFAVYYCGQSYSYPFTFGQGTKLEIK
notes: human kappa constant; also called MAB6(c)
Kd [10]: 5.94 nM
